These results are taken from patent US20240228562A1, “NOVEL LIPOCALIN MUTEINS SPECIFIC FOR CONNECTIVE TISSUE GROWTH FACTOR (CTGF)” (PIERIS PHARMACEUTICALS GMBH, priority 2021, published 2024).

Numbering of substitutions follows the chain as printed.

T1: Murine CTGF (Mus musculus, UniProt P29268)
T1 construct: purchased Abbexa
T1 sequence (P29268 26-348): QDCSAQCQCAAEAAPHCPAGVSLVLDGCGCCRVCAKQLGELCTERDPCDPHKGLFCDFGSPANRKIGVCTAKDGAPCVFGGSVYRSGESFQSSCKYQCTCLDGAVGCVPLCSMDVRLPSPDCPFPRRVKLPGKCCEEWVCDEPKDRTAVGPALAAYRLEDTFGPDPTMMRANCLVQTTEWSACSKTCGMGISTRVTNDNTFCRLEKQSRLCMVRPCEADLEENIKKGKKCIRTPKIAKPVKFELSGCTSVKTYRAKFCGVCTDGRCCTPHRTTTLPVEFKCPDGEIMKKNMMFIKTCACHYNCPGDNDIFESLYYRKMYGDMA

T2: Rat CTGF (Rattus norvegicus, UniProt Q9R1E9)
T2 construct: purchased R&D Systems
T2 sequence (Q9R1E9 25-347): T1 sequence (P29268 26-348) with H16R, A148V

B1: SEQ ID NO: 28: optimized CTGF-binding hNGAL lipocalin mutein (protein)
chain: QDSTSDLIPAPPLSKVPLQQNFQDNQFQGKWYVVGLAGNYRLREDKDPSKMGATIYELKEDKSYDVTQVQFDDKKCLYVIETFVPGSQPGEFTLGAIKSYPGLTSQLVRVVSTNYNQHAMVFVKKVWPNLEYFQIVLYGRTKELTSELKENFIRFSKSLGLPENHIVFPVPIDQCIDG
modifications: lipocalin mutein
B2: SEQ ID NO: 32: optimized CTGF-binding hNGAL lipocalin mutein (protein)
chain: QDSTSDLIPAPPLSKVPLQQNFQDNQFQGKWYVVGWAGNVKLREDKQPFKMSATIYELKEDKSYDVTEVVFEQKKCHYIIKTFVPGSQPGEFTLSPISSSPGLVSHLVRVVSTNYNQHAMVFFKKVHQNREFFWITLYGRTKELTSELKENFIRFSKSLGLPENHIVFPVPIDQCIDG
modifications: lipocalin mutein
B3: SEQ ID NO: 26: optimized CTGF-binding hNGAL lipocalin mutein (protein)
chain: QDSTSDLIPAPPLSKVPLQQNFQDNQFQGKWYVVGLAGNYRLREDKDPSKMGATIYELKEDKSYDVTQVQFDDKKCLYVIETFVPGSQPGEFTLGNIKVYPTLESQLVRVVSTNYNQHAMVFFKKVYQNREVFWITLYGRTKELTSELKENFIRFSKSLGLPENHIVFPVPIDQCIDG
modifications: lipocalin mutein
B4: SEQ ID NO: 27: optimized CTGF-binding hNGAL lipocalin mutein (protein)
chain: B1 chain with V123L, W127Y, P128G, N129S, L130E, Q134H, V136T
modifications: lipocalin mutein
B5: SEQ ID NO: 14: optimized CTGF-binding hNGAL lipocalin mutein (protein)
chain: QDSTSDLIPAPPLSKVPLQQNFQDNQFQGKWYVVGLAGNAILREDKYPAKMFATIYELKEDKSYDVTSVRFEAKSCIYTIKTFVPGSQPGEFTRGNIKSAPGQTSTLVRVVSTNYNQHAMVFFKHVSQNREIFVITLYGRTKELTSELKENFIRFSKSLGLPENHIVFPVPIDQCIDG
modifications: lipocalin mutein
B6: SEQ ID NO: 10: optimized CTGF-binding hNGAL lipocalin mutein (protein)
chain: QDSTSDLIPAPPLSKVPLQQNFQDNQFQGKWYVVGLAGNAILREDKQPAKMFATIYELKEDKSYDVTSVRFEAKSCSYTIKTFVPGSQPGEFTAGNIKSAPGQTSTLVRVVSTNYNQHAMVFWKSVAGTRESFNIALYGRTKELTSELKENFIRFSKSLGLPENHIVFPVPIDQCIDG
modifications: lipocalin mutein
B7: SEQ ID NO: 21: optimized CTGF-binding hNGAL lipocalin mutein (protein)
chain: B6 chain with W123F, S125A, A127R, T129A
modifications: lipocalin mutein
B8: SEQ ID NO: 19: optimized CTGF-binding hNGAL lipocalin mutein (protein)
chain: B5 chain with Y47Q, I77S, R94A, F123H, H125A, I132S
modifications: lipocalin mutein
B9: SEQ ID NO: 16: optimized CTGF-binding hNGAL lipocalin mutein (protein)
chain: B5 chain with E44T, Y47Q, I77V, R94A, I132F
modifications: lipocalin mutein

T4 sequence (P29279 with tags, fused parts or gaps H83D): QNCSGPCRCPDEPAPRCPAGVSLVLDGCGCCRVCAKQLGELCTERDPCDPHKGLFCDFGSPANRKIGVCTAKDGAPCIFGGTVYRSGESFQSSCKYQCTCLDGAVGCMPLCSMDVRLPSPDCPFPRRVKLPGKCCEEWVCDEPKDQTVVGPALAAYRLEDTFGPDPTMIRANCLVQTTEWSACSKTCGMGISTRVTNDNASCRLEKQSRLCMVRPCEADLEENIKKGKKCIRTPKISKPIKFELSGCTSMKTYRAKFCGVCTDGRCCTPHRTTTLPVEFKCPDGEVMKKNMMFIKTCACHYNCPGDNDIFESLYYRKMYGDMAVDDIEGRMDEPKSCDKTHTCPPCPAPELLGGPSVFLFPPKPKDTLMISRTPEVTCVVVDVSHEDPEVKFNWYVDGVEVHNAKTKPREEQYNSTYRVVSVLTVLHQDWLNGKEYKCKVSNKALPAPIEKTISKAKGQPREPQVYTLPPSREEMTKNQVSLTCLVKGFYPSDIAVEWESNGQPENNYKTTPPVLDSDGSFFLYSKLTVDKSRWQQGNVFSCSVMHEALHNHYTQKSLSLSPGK
T3 sequence (P29279 with tags, fused parts or gaps H83D): as above

In the first data set the target is T1, Murine CTGF. Put plainly: SPR binding kinetics and affinity, murine CTGF. Details: key to Murine CTGF kon / Murine CTGF koff / Murine CTGF KD: B binding without determination of kinetics constants. The settings on record: 25° C., 1:1 binding model. The method, then:
(§1) Surface plasmon resonance (SPR) was used to measure binding kinetics and affinity of the representative lipocalin muteins disclosed herein.
(§2) The binding of exemplary lipocalin muteins to human (Creative Biomart), cynomolgus, rat (R&D Systems) and mouse CTGF (Abbexa) was determined by SPR using a Biacore instrument (Cytiva, formerly GE Healthcare). Some targets were fused to a human IgG1 Fc tag, and captured via the anti-human IgG antibody kit, others were directly immobilized.
(§3) For some measurements, human CTGF with a human IgG1 Fc Tag or rat or murine CTGF without a tag were directly immobilized to a CM5 Chip. The carboxyl groups on the chip were activated using 1-ethyl-3-(3-dimethylaminopropyl)-carbodiimide (EDC) and N-hydroxysuccinimide (NHS). Subsequently, the targets at a concentration of 3-5 μg/mL in 10 mM sodium acetate (pH) 4.5 were applied at a flow rate of 10 μL/min until an immobilization level of 300-1100 resonance units was achieved. Residual non-reacted NHS-esters were blocked by passing a solution of 1 M ethanolamine across the surface. The reference channel was activated/deactivated. For the capture setting, targets with an IgG Fc Tag at 0.25-2.5 μg/mL in HBS-EP+ buffer were captured by the anti-human IgG-Fc antibody at the chip surface for 180 s at a flow rate of 10 μL/min.
(§4) The binding assay was carried out with a contact time of 180 s, a dissociation time of 900-3600 s and a flow rate of 30 μL/min. All measurements were performed at 25° C. […] For the directly immobilized targets, the same regeneration conditions were used. Prior to the protein measurements, three startup cycles were performed for conditioning purposes. Data were evaluated with Biacore Evaluation software. Double referencing was used and the 1:1 binding model was used to fit the raw data.
(§5) The values determined for kon, koff and the resulting equilibrium dissociation constant (KD) for exemplary lipocalin muteins are summarized in Table 4.
With B1, the “Murine CTGF koff” value was found to be 8.23e-05 s⁻¹ and the “Murine CTGF kon” value stood at 60700 M⁻¹ s⁻¹.
The corresponding values for B2 are 0.000264 s⁻¹ and 133000 M⁻¹ s⁻¹.
The like results for B3 were, in that order, 0.000208 s⁻¹ and 35300 M⁻¹ s⁻¹.
The corresponding values for B4 are 0.000172 s⁻¹ and 41400 M⁻¹ s⁻¹.
As to B5, the “Murine CTGF koff” value is 7.03e-05 s⁻¹ and the “Murine CTGF kon” value stood at 190000 M⁻¹ s⁻¹.
As for B6, the “Murine CTGF KD” value was “B”, the “Murine CTGF koff” value was “B” and the “Murine CTGF kon” value is “B”.
On to B7, for which the “Murine CTGF koff” value came out at 3.94e-05 s⁻¹ and the “Murine CTGF kon” value was determined as 228000 M⁻¹ s⁻¹.
On to B8, for which the “Murine CTGF koff” value is 2.54e-05 s⁻¹ and the “Murine CTGF kon” value was found to be 93200 M⁻¹ s⁻¹.
The like results for B9 were, in that order, 6.34e-05 s⁻¹ and 161000 M⁻¹ s⁻¹.

A further data set has as its target T2, Rat CTGF. The data set is described as follows: SPR binding kinetics and affinity, rat CTGF. The settings on record: 25° C., 1:1 binding model. The method, then:
as §1, §2, §3, §4, §5
(In SPR one partner is held on a chip, and binding of the other changes the refractive index at the surface.)
Turning to B6, the “Rat CTGF koff” value is 4.08e-05 s⁻¹ and the “Rat CTGF kon” value was 88800 M⁻¹ s⁻¹.

System in a further data set: not listed separately
Put plainly: Thermal stability assessment by nanoDSC. The following applies: 1 mg/mL in PBS, scan 25-100° C. at 1° C./min. In kind it is physicochemical. The method, then: To determine the melting temperatures (Tms) of the lipocalin muteins, which is a general indicator for folding stability, the CTGF specific muteins, at a protein concentration of 1 mg/mL in PBS (Gibco), were scanned (25-100° C.) at 1° C./min using a capillary nanoDSC instrument (CSC 6300, TA Instruments). […] Several unfolding events can contribute to the observed thermogram. In cases with multiple transitions, the one with the major unfolding energy best represents the overall protein fold and is reported. Muteins were produced as described in Example 3. SEQ ID NOs: 3, 7, 9, 25, and 29 were expressed using E. coli, the other muteins were expressed using CHO cells.
The resulting maximum melting temperatures as well as the onset temperature of melting for exemplary lipocalin muteins and fusion proteins are listed in Table 3 below.
As for B1, the “ONSET MELTING” value is 55 °C.
The same measure, in the same setting: the same measure for B2: 62 °C; for B3: 62 °C.
Still for that read-out and setting: the same measure for B4: 52 °C; for B5: 57 °C; for B6: 50 °C.
For B7, the “ONSET MELTING” value worked out at 55 °C.
On the same count and under the same terms, in the case of B8 it was 49 °C; in that of B9, 59 °C.

The data set is the same for the next values; noted with them: 1 mg/mL in PBS, scan 25-100° C. at 1° C./min, major transition.
Consider B1, for which the TM was 65 °C.
The molecule B2 came in with a TM of 79 °C.
In turn, B3 returned a TM of 71 °C.
The same measure, in the same setting: the same measure for B4: 64 °C; for B5: 68 °C.
Still for that read-out and setting: in the case of B6 it was 66 °C; in that of B7, 65 °C.
As for B8, the TM turned out to be 65 °C.
The same measure, in the same setting: the same measure for B9: 73 °C.

The next data set addresses T3, human CTGF (Homo sapiens, UniProt P29279, H83D).
T3 construct: purchased Creative Biomart
The data set is described as follows: SPR binding kinetics and affinity, human CTGF. The settings on record: 25° C., 1:1 binding model. The method, then:
as §1, §2, §3, §4
On to B1, for which the “human CTGF kon” value was 50400 M⁻¹ s⁻¹.
Turning to B2, the “human CTGF kon” value worked out at 109000 M⁻¹ s⁻¹.
Still for that read-out and setting: the same measure for B3: 23200 M⁻¹ s⁻¹.
On the same count and under the same terms, the same measure for B4: 30500 M⁻¹ s⁻¹; for B5: 102000 M⁻¹ s⁻¹.
Same read-out and setting: the same measure for B6: 67700 M⁻¹ s⁻¹; for B7: 127000 M⁻¹ s⁻¹; for B8: 56600 M⁻¹ s⁻¹.
Consider B9, for which the “human CTGF kon” value was found to be 92300 M⁻¹ s⁻¹.

A further data set has as its target T4, human CTGF (Homo sapiens, UniProt P29279).
T4 construct: purchased Creative Biomart
The data set is described as follows: SPR binding kinetics and affinity, human CTGF. The following applies: 25° C., 1:1 binding model. The method, then:
as §1, §2, §3, §4
Take B1: the “human CTGF koff” value was 2.61e-05 s⁻¹.
Still for that read-out and setting: in the case of B2 it was 6.39e-05 s⁻¹; in that of B3, 3.06e-05 s⁻¹.
B4: the “human CTGF koff” value stood at 2.45e-05 s⁻¹.
For B5, the “human CTGF koff” value came to 5.34e-05 s⁻¹.
With B6, the “human CTGF koff” value amounted to 2.23e-06 s⁻¹.
Regarding B7, the “human CTGF koff” value was 6.63e-05 s⁻¹.
Same read-out and setting: the same measure for B8: 5.2e-05 s⁻¹.
Take B9: the “human CTGF koff” value came out at 7.02e-05 s⁻¹.
